Data as given in patent publication US20230002478A1 (published 2023).
Several values for one entry are separate records, joined by “and”; a condition that tells them apart may be missing. Equal entries are not always repeated. Where two headings read alike, the source gives them in different places.

Key:
Assay in all cases: SPR
[1] = molecular target: T1, SARS-CoV-2 spike protein, kappa variant (SPR, FIG. 28 Panel D) (SARS-CoV-2, UniProt P0DTC2 16-1213)
[2] = molecular target: T2, SARS-CoV-2 spike protein, gamma variant (SPR, FIG. 28 Panel C) (SARS-CoV-2, UniProt P0DTC2 16-1213)
[3] = molecular target: SARS-CoV-2 spike protein, Delta variant (SPR) (SARS-CoV-2, UniProt P0DTC2 16-1213)
[4] = molecular target: T3, SARS-CoV-2 spike protein, beta variant (SPR, FIG. 28 Panel B) (SARS-CoV-2, UniProt P0DTC2 16-1213)
[5] = molecular target: SARS-CoV-2 S Trimer Alpha B.1.1.7 UK variant
[6] = molecular target: T3, SARS-CoV-2 spike protein, beta variant …; remark: listed apart in the source
[7] = molecular target: SARS-CoV-2 spike protein, wildtype variant (SPR, FIG. 28 Panel A) (SARS-CoV-2, UniProt P0DTC2 16-1213)
[8] = molecular target: T1, SARS-CoV-2 spike protein, kappa variant …; remark: listed apart in the source
[9] = molecular target: T2, SARS-CoV-2 spike protein, gamma variant …; remark: listed apart in the source
[10] = molecular target: SARS-CoV-2 mutant trimer UK TB918-09

B1: antibody 339-031 (Fc fusion)
chain: EVQLVESGGGLVQPGGSLRLSCAASGSTFSINAMGWFRQAPGKEREFVAGITSSGGYTNYADSVKGRFTISADNSKNTAYLQMNSLKPEDTAVYYCAADGVPEYSDYASGPVWGQGTLVTVSS
B1 was tested, and the Kd [1] was < 10 pM, the Kd [2] was < 9.4 pM and the Kd [3] was < 11 pM. The Kd [4] was < 9.6 pM.

B2: T8339-031 (Fc fusion)
chain: EVQLVESGGGLVQPGGSLRLSCAASGSTFSINAMGWFRQAPGKEREFVAGITSSGGYTNYADSVKGRFTISADNSKNTAYLQMNSLKPEDTAVYYCAADGVPEYSDYASGPVWGQGTLVTVSS
B2 was tested, and the Kd [5] was < 11 pM.

B3: antibody 202-03 (Fc fusion)
chain: EVQLVESGGGLVQPGGSLRLSCAASGFTFSPSWMGWFRQAPGKEREFVATINEYGGRNYADSVKGRFTISADNSKNTAYLQMNSLKPEDTAVYYCARVDRDFDYWGQGTLVTVSS
For B3, the Kd [1] was 272 pM, the Kd [2] was < 73 pM and the Kd [6] was < 50 pM. For the same binder, the Kd [7] was < 64 pM, the Kd [8] was 105 pM and the Kd [9] was < 41 pM. The Kd [3] was 312 pM and the Kd [4] was < 95 pM.

B4: T8202-3 (TP37196F) (Fc fusion)
chain: EVQLVESGGGLVQPGGSLRLSCAASGFTFSPSWMGWFRQAPGKEREFVATINEYGGRNYADSVKGRFTISADNSKNTAYLQMNSLKPEDTAVYYCARVDRDFDYWGQGTLVTVSS
In the case of B4, the Kd [5] is reported as < 75 pM.

B5: 6-3 (Fc fusion)
chain: EVQLVESGGGLVQPGGSLRLSCAASGFTFSPSWMGWFRQAPGKEREFVATINEYGGRNYADSVKGRFTISADNSKNTAYLQMNSLKPEDTAVYYCARVDRDFDYWGQGTLVTVSS
With B5 the Kd [10] was 857 pM and 1300 pM.
